Experimental findings from US20070099822A1, “Regulation of tissue mineralization and phosphate metabolism by asarm peptides” (priority 2003, published 2007) are described below.

The subject of experiment [1] is mouse osteoblast cell-line 2T3. Nature of the experiment: Mineralized bone matrix formation assay (von Kossa), BMP2-induced. The note with it: 2T3 cells; for effect on BMP2-mediated mineralization (von Kossa staining): Hu-MEPE 10-800 ng/mL, ASARM-peptide 60 and 300 ng/mL, control peptide 300 ng/mL. It is filed as cell-based. The text has this:
Mineralized bone matrix formation assay. A mouse osteoblast cell-line (2T3-cells) were monitored using a mineralized matrix formation assay as described by Bhargava et al. (Ultrastructural analysis of bone nodules formed in vitro by isolated fetal rat calvaria cells. Bone 9:155-63, 1988) and cultured as described previously (Bhargava et al., supra; Chen et al. Differential roles for bone morphogenetic protein (BMP) receptor type IB and IA in differentiation and specification of mesenchymal precursor cells to osteoblast and adipocyte lineages. J Cell Biol 142:295-305, 1998; and Zhao, et al. Bone morphogenetic protein receptor signaling is necessary for normal murine postnatal bone formation. J Cell Biol 157:1049-60, 2002). Mineralization of the murine osteoblastic 2T3 cell-line has been extensively studied using physical techniques, electron microscopy and histological techniques. This cell line (2T3) undergoes exogenous BMP2-induced mineralized-matrix indistinguishable from normal bone-mineral hydroxyapatite in-vitro (Bhargava et al., supra; Chen et al., supra; and Zhao et al., supra). The cells were plated in 24-well culture plates at density of 2×10^4 cells/well and cultured with minimal essential medium (MEM) supplemented with 10% FCS. When the cells reached confluency (day 0), the medium was changed to MEM containing 5% FCS, 100 μg/mL ascorbic acid and 5 mM β-glycerol phosphate with or without 100 ng/mL of BMP-2. The effects of Hu-MEPE, MEPE ASARM-peptide and control peptide at different doses (see results section) in the absence and presence of BMP2 were measured using the von Kossa stain for mineralization. The medium was changed every other day and fresh reagents were added. Von Kossa stain of mineralized bone matrix was performed as follows. The cell cultures were washed with PBS twice, fixed in phosphate buffered formalin for 10 min, and then washed with water, and serially dehydrated in 70%, 95%, and 100% ethanol, twice each and air dried. The plates were rehydrated from 100% to 95% to 80% ethanol to water before staining. The water was removed, a 2% silver nitrate solution was added, and the plates were exposed to sunlight for 20 min, after which the plates were rinsed with water. 5% sodium thiosulfate was added for 3 min and the plates were then rinsed with water. The modified van Gieson stain was then used as a counterstain after the von Kossa stain. The unmineralized collagen matrix can be recognized by the yellow/red van Gieson stain. The acid fuchsin solution (5 part of 1% acid fuchsin, 95 part of picric acid, and 0.25 part of 12 M HCl) was added for 5 min. The plates were washed with water, and then 2×95% ethanol and 2×100% ethanol, and dried for image analysis. The area of von Kossa stained matrix was quantitated as previously described (Chen et al., supra). Briefly matrix was quantified by automated image analysis using a video analysis program (Jandel Scientific, San Rafael Calif.) and also a Bio-Rad (Hercules, Calif.) Quantity-1 image analysis capture program. A video screen camera (CCD/RGB; Sony Corp., Park Ridge, N.J.) linked to a microscope (model BH2; Olympus Corp., Precision Instruments Division, Lake Success, N.Y.) equipped with metallurgical lens was used to image plates.

In experiment [2] the test system is Na+ dependent phosphate co-transport in human renal proximal tubule cell-line (Hu-CL8). Nature of the experiment: 33PO4 uptake scintillation proximity assay (SPA) in Hu-CL8. It is filed as cell-based. The protocol: Measurement of ^33PO4 uptake and ^14C-α-methyl D-glucose uptake. A novel technique, scintillation proximity assay (SPA), was used to measure ^33PO4 uptake in-vitro. Human renal proximal-tubule primary cells (RPTEC) were purchased from Clonetics-Biowhittaker (Walkersville, Md.) (cat. no. CC2553) and were cultured and subcultured using the manufacturers recommended protocols, methods, buffers and media (cat. nos. CC3190, CC5034). Also a human renal cell-line (Hu-CL8) was cultured as previously described (Rowe et al. Candidate 56 and 58 kDa protein(s) responsible for mediating the renal defects in oncogenic hypophosphatemic osteomalacia. Bone 18(2):159-169, 1996). For ^33PO4-uptake measurement cells were grown in REBM media supplemented with 5% fetal calf serum (REBM-FCS) to 80% confluence (Clonetics-Biowhitaker, Walkersville, Md.: cat. nos. CC2553, CC3190 and CC5034) and seeded into 96 well (3000 cells/well) cytostar-T scintillating-microplates (Amersham-Pharmacia Biotech, Piscataway, N.J.: cat. no. RPNQ 0162). Cells were then cultured in 200 μL of REBM-FCS media for 24 h. Media was then replaced with serum free media (REBM) and the cells incubated for a further 3-4 h with Hu-MEPE, PTH (1-34) or media control respectively in REBM media. The concentrations of PTH (1-34) and Hu-MEPE were […] and each experimental dose was repeated eight times for statistical analysis. Following incubation media was removed and replaced with either phosphate uptake buffer (PUB) consisting of 150 mM NaCl/1 mM Cacl2/1.8 mM MgSO4/10 mM HEPE pH 7.0/0.1 mM phosphate buffer pH 7.0 and 3 uCi mL^−1 33P as orthophosphoric acid (18 MBq/mL or 5775.7 Gbq/mg stock solution Perkin Elmer, Wellesley, Mass.: cat. no. NEZ080). In order to determine the Na-dependent phosphate co-transporter activity a separate set of control cells were incubated with the same buffer but with choline chloride (150 mM) substituted for NaCl (CHUB buffer). […] Due to the unique design of the 96 well cytostar-plate radioactive decay in solution is not detected by the counter. In contrast, radioisotope attached to or taken into the cells initiates release of plastic-scintillant photons that are detected by the top-counter photo-multiplier tube. Thus, no washes are required and direct CPM can be counted in living cells. […] Conversion of a tetrazolium salt to a colored formazan product by living cells was then measured at 490 nm using a 96 well multi-well spectrophotometer with KC-4 software (absorbance at 490 nm is directly proportional to the number of living cells). Na-dependent ^33P uptake was then calculated by subtracting background counts and the choline chloride non Na-dependent ^33P uptake and results expressed as ^33PO4 femtomoles/10^4-cells/6 min. […]

“Also recorded” adds a separate entry of the source.

For “H-CFSSRRRDDSSESSDSGSSSESDGD-OH [ASARM-peptide]”, the “effect on BMP2-mediated mineralization (von Kossa staining)” value in experiment [1] (BMP2 100 ng/mL, listed as MEPE ASARM-peptide) is “dose-dependently inhibits”; in experiment [1] (BMP2 100 ng/mL, listed as MEPE-ASARM-peptide), “inhibit”.

B1: Hu-MEPE: purified insect expressed full-length recombinant human MEPE (Matrix Extracellular Phosphoglycoprotein) (protein)
chain: PTFQPQTEKTKQSCVEEQRQEEKNKDNIGFHHLGKRINQELSSKENIVQERKKDLSLSEASENKGSSKSQNYFTNRQRLNKEYSISNKENTHNGLRMSIYPKSTGNKGFEDGDDAISKLHDQEEYGAALIRNNMQHIMGPVTAIKLLGEENKENTPRNVLNIIPASMNYAKAHSKDKKKPQRDSQAQKSPVKSKSTHRIQHNIDYLKHLSKVKKIPSDFEGSGYTDLQERGDNDISPFSGDGQPFKDIPGKGEATGPDLEGKDIQTGFAGPSEAESTHLDTKKPGYNEIPEREENGGNTIGTRDETAKEADAVDVSLVEGSNDIMGSTNFKELPGREGNRVDAGSQNAHQGKVEFHYPPAPSKEKRKEGSSDAAESTNYNEIPKNGKGSTRKGVDHSNRNQATLNEKQRFPSKGKSQGLPIPSRGLDNEIKNEMDSFNGPSHENIITHGRKYHYVPHRQNNSTRNKGMPQGKGSWGRQPHSNRRFSSRRRDDSSESSDSGSSSESDGD
For the molecule B1, in experiment [2] (Hu-CL8), the “Vmax of percentage inhibition of 33PO4-uptake” value was 9.1% and the “inhibition of Na+ dependent phosphate co-transport” value was “dose-dependent in-vitro inhibition”. In experiment [2] (Hu-CL8, lineweaver-burke plot), the “Km of inhibition of 33PO4-uptake” value was determined as 23.8 ng/mL. Further, the “effect on BMP2-mediated mineralization at concentrations above 100 ng/mL” value in experiment [1] (BMP2 100 ng/mL, Hu-MEPE above 100 ng/mL) was “very effective inhibitors; also recorded: completely inhibited mineralization”. Also, the “effect on BMP2-mediated mineralization (von Kossa staining)” value in experiment [1] (BMP2 100 ng/mL) was “dose dependently and reproducibly inhibited mineralization; also recorded: inhibit; also recorded: highly significant inhibition”. Besides, in experiment [1] (no BMP2), the “mineralization in the absence of BMP2” value is recorded as “no effect on mineralization; also recorded: indistinguishable to control cells”.
